Results reported in PMC3368277.

Target: His-tagged recombinant C0–C1 domains of cardiac myosin binding protein-C (mouse)
Assay: pull-down

Sequence of His-tagged recombinant C0–C1 domains of cardiac myosin binding protein-C (mouse) (O70468 whole entry, the tested form may be a part): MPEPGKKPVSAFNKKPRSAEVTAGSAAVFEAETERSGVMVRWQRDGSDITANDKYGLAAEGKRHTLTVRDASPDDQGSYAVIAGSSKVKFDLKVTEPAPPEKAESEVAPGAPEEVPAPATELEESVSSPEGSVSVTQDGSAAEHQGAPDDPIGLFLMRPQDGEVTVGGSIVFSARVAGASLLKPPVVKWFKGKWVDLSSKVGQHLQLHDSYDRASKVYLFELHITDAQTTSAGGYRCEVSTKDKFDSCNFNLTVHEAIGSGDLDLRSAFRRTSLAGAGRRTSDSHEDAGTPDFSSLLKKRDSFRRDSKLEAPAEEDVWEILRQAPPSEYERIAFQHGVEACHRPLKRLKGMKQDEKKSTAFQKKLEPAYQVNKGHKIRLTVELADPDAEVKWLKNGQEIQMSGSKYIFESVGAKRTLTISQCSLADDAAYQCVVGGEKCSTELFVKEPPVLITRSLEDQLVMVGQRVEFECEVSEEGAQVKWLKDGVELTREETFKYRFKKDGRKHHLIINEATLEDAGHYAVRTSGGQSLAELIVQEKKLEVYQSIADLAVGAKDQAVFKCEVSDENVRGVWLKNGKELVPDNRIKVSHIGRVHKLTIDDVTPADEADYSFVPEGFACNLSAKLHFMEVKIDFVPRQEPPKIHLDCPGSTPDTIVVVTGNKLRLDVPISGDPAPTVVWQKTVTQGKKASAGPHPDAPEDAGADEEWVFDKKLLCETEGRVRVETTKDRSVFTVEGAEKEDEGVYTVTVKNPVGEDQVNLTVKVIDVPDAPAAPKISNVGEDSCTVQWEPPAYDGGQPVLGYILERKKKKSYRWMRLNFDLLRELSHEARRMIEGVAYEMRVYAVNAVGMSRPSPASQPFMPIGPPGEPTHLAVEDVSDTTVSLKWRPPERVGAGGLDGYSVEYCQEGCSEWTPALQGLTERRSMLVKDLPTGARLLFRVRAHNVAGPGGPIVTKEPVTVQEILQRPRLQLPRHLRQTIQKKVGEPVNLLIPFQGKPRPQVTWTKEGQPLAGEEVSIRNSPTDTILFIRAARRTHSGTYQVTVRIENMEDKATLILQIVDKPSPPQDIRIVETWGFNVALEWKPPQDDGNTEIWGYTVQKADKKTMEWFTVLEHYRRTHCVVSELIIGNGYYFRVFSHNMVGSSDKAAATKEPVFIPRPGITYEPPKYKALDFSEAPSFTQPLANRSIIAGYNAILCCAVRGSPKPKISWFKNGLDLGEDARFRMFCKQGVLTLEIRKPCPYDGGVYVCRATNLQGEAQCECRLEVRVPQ

reduction of binding against C0–C2 (quantified blot): 50%
Substance: sarcomeric actin (from UniProt P68033 1-377) (natural protein)
